According to paper PMC2734569, “Functional mapping of the fission yeast DNA polymerase δ B-subunit Cdc1 by site-directed and random pentapeptide insertion mutagenesis” (BMC Molecular Biology, 2009):

Tests used:
Assay in all cases: two-hybrid; LexA-Cdc1 bait (pBTM116 or pBTM116BN) with Gal4 activation domain-Cdc27 prey (pGAD2F-Cdc27) in S. cerevisiae CTY10-5d; ONPG liquid culture beta-galactosidase assay, mean of triplicates, as percent of wild-type Cdc1
Conditions in all cases: partners not purified
Cdc1-A3 = biological target: T1, Cdc1-A3 (Schizosaccharomyces pombe, UniProt P87324 1-462, Asp296Ala)
T1 construct: Cdc1, S. pombe, point mutant; source: yeast two-hybrid fusion, in S. cerevisiae CTY10-5d
T1 sequence (looked up): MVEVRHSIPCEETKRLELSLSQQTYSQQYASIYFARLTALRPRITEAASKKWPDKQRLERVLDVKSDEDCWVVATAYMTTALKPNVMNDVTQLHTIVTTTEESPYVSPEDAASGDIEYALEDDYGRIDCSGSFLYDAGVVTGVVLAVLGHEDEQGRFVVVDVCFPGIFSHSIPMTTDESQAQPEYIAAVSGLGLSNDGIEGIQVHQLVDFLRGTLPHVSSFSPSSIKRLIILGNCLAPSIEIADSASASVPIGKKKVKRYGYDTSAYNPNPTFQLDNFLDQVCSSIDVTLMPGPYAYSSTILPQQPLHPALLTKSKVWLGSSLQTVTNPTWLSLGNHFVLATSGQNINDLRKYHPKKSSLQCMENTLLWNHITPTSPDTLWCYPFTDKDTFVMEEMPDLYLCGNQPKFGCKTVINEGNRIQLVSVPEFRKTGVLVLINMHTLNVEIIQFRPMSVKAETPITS

Cdc1-J16 = biological target: T2, Cdc1-J16 (Schizosaccharomyces pombe, UniProt P87324 1-462, Val-GlyGlyThrProVal-Asp)
T2 construct: Cdc1, S. pombe, with a pentapeptide inserted after residue 160; source: yeast two-hybrid fusion, in S. cerevisiae CTY10-5d
T2 sequence (looked up): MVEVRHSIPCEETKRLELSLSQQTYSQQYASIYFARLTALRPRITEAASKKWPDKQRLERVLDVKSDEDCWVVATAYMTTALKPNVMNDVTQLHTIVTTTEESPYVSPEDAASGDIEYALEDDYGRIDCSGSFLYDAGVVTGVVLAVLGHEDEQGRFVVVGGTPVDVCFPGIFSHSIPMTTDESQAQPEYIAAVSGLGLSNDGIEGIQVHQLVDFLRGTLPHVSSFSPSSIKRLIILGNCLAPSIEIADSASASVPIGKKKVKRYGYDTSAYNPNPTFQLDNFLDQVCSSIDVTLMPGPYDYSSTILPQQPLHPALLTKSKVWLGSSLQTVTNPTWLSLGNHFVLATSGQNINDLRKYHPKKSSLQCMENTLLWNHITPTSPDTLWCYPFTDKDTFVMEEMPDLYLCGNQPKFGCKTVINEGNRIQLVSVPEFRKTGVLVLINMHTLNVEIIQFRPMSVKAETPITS

Cdc1-E2 = biological target: T3, Cdc1-E2 (Schizosaccharomyces pombe, UniProt P87324 1-26)
T3 construct: Cdc1, S. pombe, truncated after amino acid 26 by a 16 nt insertion; residues coded by the 16 nt insertion before the stop codon (printed as GlyValProLysTer); source: yeast two-hybrid fusion, in S. cerevisiae CTY10-5d
T3 chain: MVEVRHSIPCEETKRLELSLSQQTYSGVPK

Cdc1-J6 = biological target: T4, Cdc1-J6 (Schizosaccharomyces pombe, UniProt P87324 1-462, Tyr-GlyValProHisTyr-Gly)
T4 construct: Cdc1, S. pombe, with a pentapeptide inserted after residue 124; source: yeast two-hybrid fusion, in S. cerevisiae CTY10-5d
T4 sequence (looked up): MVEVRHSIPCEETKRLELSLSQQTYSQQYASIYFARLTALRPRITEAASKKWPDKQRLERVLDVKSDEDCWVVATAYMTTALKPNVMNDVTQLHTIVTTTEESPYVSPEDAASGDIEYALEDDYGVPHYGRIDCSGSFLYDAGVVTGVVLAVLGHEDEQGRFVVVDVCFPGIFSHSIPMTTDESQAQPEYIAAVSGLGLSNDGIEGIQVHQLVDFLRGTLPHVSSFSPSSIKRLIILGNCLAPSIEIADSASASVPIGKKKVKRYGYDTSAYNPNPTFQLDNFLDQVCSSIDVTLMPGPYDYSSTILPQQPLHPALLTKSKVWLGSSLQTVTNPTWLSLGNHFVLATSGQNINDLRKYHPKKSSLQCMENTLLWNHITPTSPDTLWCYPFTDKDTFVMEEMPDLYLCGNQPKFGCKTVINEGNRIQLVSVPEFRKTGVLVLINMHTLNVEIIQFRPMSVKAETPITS

Cdc1-A2 = biological target: T5, Cdc1-A2 (Schizosaccharomyces pombe, UniProt P87324 1-462, Gly293Ala)
T5 construct: Cdc1, S. pombe, point mutant; source: yeast two-hybrid fusion, in S. cerevisiae CTY10-5d
T5 sequence (looked up): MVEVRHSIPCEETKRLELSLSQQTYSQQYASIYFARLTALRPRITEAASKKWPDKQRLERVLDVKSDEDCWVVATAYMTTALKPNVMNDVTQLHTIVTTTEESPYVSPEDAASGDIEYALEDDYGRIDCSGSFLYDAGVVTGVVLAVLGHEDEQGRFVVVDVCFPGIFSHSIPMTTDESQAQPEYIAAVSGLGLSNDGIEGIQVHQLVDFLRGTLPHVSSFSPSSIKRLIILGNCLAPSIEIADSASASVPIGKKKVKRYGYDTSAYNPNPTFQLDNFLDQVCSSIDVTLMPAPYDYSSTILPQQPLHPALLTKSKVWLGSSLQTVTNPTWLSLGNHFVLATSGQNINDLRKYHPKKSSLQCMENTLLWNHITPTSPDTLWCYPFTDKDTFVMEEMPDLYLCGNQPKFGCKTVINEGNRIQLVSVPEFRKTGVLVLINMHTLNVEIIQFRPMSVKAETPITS

B1: Cdc27 (fission yeast DNA polymerase delta C-subunit) (natural protein, Schizosaccharomyces pombe, UniProt P30261 1-372, looked up)
chain: MEEWRNFLDIKVINESSLVTVDNLSLQLDISSEKAQEYLNMFYQGNDFLYPIYLIHGQPIDDEINLEIDEESQPISNFPVLQYILCDKSSLQEKQSRLKSGYKTVIFALSSAPLSDFDELLPAVYEIREKDVLYKKEDADKYGFIFNENSVPRVLKKAPSTHSPQLSVPSKTSTIDKTDTRSTEKTKGKDIFSNARNQKGNSSRKNKKAPLENHKEKEPLLPKEEKLSEQAKRERDDLKNIMQLEDESVSTTSVHDSEDDNLDSNNFQLEIGTEAKSAAPDEPQEIIKSVSGGKRRGKRKVKKYATTKDEEGFLVTKEEEVWESFSEDENISTGTSNVVRNKPTTVNIATKKKNTAQSKPQQKSIMSFFGKK
notes: DNA polymerase delta C-subunit Cdc27, S. pombe; prey plasmid pGAD2F-Cdc27; also called pGAD2F-Cdc27; source: yeast two-hybrid fusion, in S. cerevisiae CTY10-5d
With B1 the “two-hybrid beta-galactosidase activity, % of wild-type Cdc1” value (Cdc1-A3) was 23%, the “two-hybrid beta-galactosidase activity, % of wild-type Cdc1” value (Cdc1-J16) was < 1% and the “two-hybrid beta-galactosidase activity, % of wild-type Cdc1” value (Cdc1-E2) was < 1%. The “two-hybrid beta-galactosidase activity, % of wild-type Cdc1” value (Cdc1-J6) was < 1% and the “two-hybrid beta-galactosidase activity, % of wild-type Cdc1” value (Cdc1-A2) was 19%.
